Laboratory results from the supplement of paper PMC11502859.
Several values for one entry are separate records, joined by “and”; a condition that tells them apart may be missing. Equal values may be shown once.

System: HEK293T
Assay: median enrichment of reporter reads in eGFP-reduced (low/intermediate) vs eGFP-high sorted cells (eGFP-extension fusion abundance) (ratio); higher = stronger loss of eGFP-fusion protein abundance (more destabilising extension)
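Also: lentiviral eGFP-IRES-mCherry reporter pool sorted by FACS 96 h post-transduction, gated on mCherry-high cells, Illumina read counts normalized per million, median across four biological replicates.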

Substance	median enrichment
RTSRPTTLRKIEW [HCAR1]	1.94
WKRD [RER1]	0.349
LDRKEYERAIHHQTAHTGEK [ZNF573]	0.396
RDSRTKSLCMKLPTMNVMMLYTKVTRQLSLSGFRSVFGTSLSSTYSAHGNYKLYISFPIVFQNVFSTEHA [RUFY2]	8.53
WSSVVE [TMEM17]	0.673
CLFCPHIFCFLGRMAEAWWLPPRSGTD [NR1H3]	12.1
WPPGTSLALLTHPRNTISGTRAAPRTRGYSRHNLIERAPAALTSTAFDTYASLVLLLSSESSCAHAFSRMGSPLAVAASVLAL [KIAA1522]	8.47
WRPNSRTPK [SNRNP35]	0.861
QSPSVLPLSPLSPWPVVVPQPLPPSTSSVSPSPRLINLLIDCDSK [ERGIC3]	9.24
RNCMKKIKSSKMALVTIKKL [CXorf41]	2.73
QGPAPRTDSTRKPNDVPARRPRRAAFPLVLEKLEHPVTALFAMGTGTLFYTMLPPSPP [CARM1]	3.47
REALHLNLFMS [ERI2]	2.13
WWW [Trp03]	2.55
WKRLGRGSGRGLSPPEAGKESLFSHMIFRVLETHSCRSCRTLEFLGNCPAS [GPR83]	13.9
REVYLKKKSETDTSNPAVTTTPTTYVHMTNNFQVGFS [KCNH1]	4.02
KTAPPTSVQAGRSP [NCAPD3]	7.59
WEKN [C12orf65]	0.333
YKL [OR6C2]	0.678
RAQLLRAQTPA [TNK1]	1.82
WSPTRPERPEMVLTMLPANRSRKPACE [ANXA2]	1.38
RTDCRSWEPRHAQASAEGAAGGSARLDPWHLIKKFSLMSMVVGQPSSLSQQAHAASVTSSPAVYTGHCGPEWLGPCRSYTTGC [ZFPM1]	4.58
GGR [RGS21]	0.868
SSCCHQLALWPRARCLPFMFPHLQSELVVPDDLRSHDLLTCPMILYFVGRSIKQLLLLLCANHSCNFCSAYLPLFEKHAKGSF [ADAMTSL1]	4.11

Substance	median enrichment
WGQCLPAPPLASSSAPRVPSVDPIRPAMASYSKMV [ACO2]	0.96
LNRQDRLWERGSFHKRKMVGLFPE [C10orf53]	7.23
QVTGNLSHLPFSSGTTLHKCVPRGSPFLSSSTENAARSSYPSSRGPAAMLYAPEGTLVPRKERKKRDGLWLHFLGP [VAMP8]	7.27
RSNFSFTVLSCLHRKSQYNFHC [SEC23IP]	2.62
SDNL [PDLIM2]	0.365
LSSC [KRTAP13-1]	0.413
RYC [NCK1]	0.896
YSQILALLSG [CHRNA9]	12.2
VSSFLLVFFILFSFHQPSCILALQRDRDRSSAQGFSLPLFIMGGGYHPPSQSCEESGTSFFPTSLFPHSFLSPSGLSFPYTLT [NOTCH3]	5.94
EFK [BBS9]	0.267
HHHHH [His05]	0.675
WRCRHPSPIIKST [CPS1]	8.4
YISHVNLPER [MSMO1]	15.7
YYYYYYYYYY [Tyr10]	6.9
QHGGFGS [AKAIN1]	0.844
SVWGLAPCSPGPHCSHTLRLGPPSLLWC [TOM1]	8.98
WSLKWRTCVFIISAKVLTSCAFPITSRSNYQLVWIFGPPFSHFGLPCSQNILNESIGIQKDSRQNERK [VCAN]	11.9
RGFRHCIPELL [PPM1M]	1.19
GVPGHSGLVQTPLL [PAF1]	0.255
RTSARPARPFPTST [ISLR2]	0.582
LILYPSAMATRRTNNCPPLEVRLIEALDPNKIRIRICNGPGAVPHACHPSTLGG [RBPMS]	3.14
RRTACSDQRAQRPEDKSGGDSMGMGVGCLRERTHGLGRGERCMGITFARAAYLKVTVSSGTAGDRYLLLQEINYPENSTQPVT [LEXM]	13.9
SVGSPSKPRPLKPPLAAPRSSHYLCPEGGKSFPAHPPR [BCL7C]	1.39

Substance	median enrichment
CSQVGFA [TUSC3]	0.572
CVF [LYRM7]	0.777
SSFIGLNTVCFYQSGHWHCLLFYNHVDTSISKENLSTR [RARS]	8.65
RKEKQLLPLSWDRGVGKSAGPHGAWGSQTEAPQNFLQCLRDAWMWPLPLLLTLKDSQTH [LY9]	4.97
LKQPV [RIC3]	1.01
PARVSGPRSIENTTTMARWKGLLVPASSCPPWCRWPGQPTGLGTGQAGPGRGLSLGGNKSRPTRRCCSGSRCRCRDKSAAVSG [MLST8]	9
LPSRSTATQVYLPLPSNPFPRAIFISPNKRAPRK [HRC]	11.1
KLQC [OR4C6]	0.547
SGLLPLGPLTLSGWWTTKYNPVYNLKIYFTFVLLYLFIKG [SMAD4]	7.74
RACQEVTTSLLPAAWARTALRFEGNMDPFGPAGTGHIPHPRATMGVGNFLVCFLIYL [PLEKHH3]	8.55
SWVCAQPFKAAGSTT [TRIM45]	4.99
CGCAPAGSSKDRPARSPSNPTFFWKGGVLQGQAGASSRLLGANPSMYIAFLSCLRAADSQRCARGERCAVGSRA [TNFRSF1A]	13.5
LVRIFNIFQKCIYIVLLCFFHCTL [SLC39A12]	9.98
QKMTQKLEPTKLLTPC [ADGRL3]	1.01
YGRWEVSSLSLACSSSWT [REG3G]	6.24
YGGPVGEPGDSRV [CHRND]	0.405
EHQETLE [KLHL14]	0.343
SDQGLGLRVGGLVEHCNPLNK [LRG1]	1.34
LSFRQFSSNGPFQGRPLPLRKSCDCILSDGNISMALLGYSA [HIST1H4B]	5.72
GSGP [LCE1D]	0.314
LLLLLLLLL [Leu09]	11.2
QPWSITLPPSPGTTGPITFECCIWISRCLCGSLPHFSWT [UBE2Q1]	7.69
QGIQGTAL [CXorf26]	0.941

Substance	median enrichment
EHVGSVPTQCFGKCKI [DNAH5]	0.681
WEKQAKEKSVTVPL [KIDINS220]	0.839
YIMDWDILYFSC [UBA5]	13
QPDKRNKLFFLMDCSKRSLKIPWLSTYKTYYLNKEEYYVNIHIKNFGGFEKNELYIYKSTLKTNFNCLKQLF [NLGN1]	24
VVVVVVVV [Val08]	10.5
QPSSCKAIAKQGGSLQSMPGDYVSQGGPMGMSMAQPSYTPPQMTPHPTQLRHGPPMHSYLPSHPHHPAMMMHGGPPTHPGMTM [MEIS2]	3.91
LEPWGWGRGCQLHSGTLGRWASERLLTGSGASRCQAASGPLGCPGQACEEGLRWGRQGAPGSRDHR [RPUSD1]	5.25
SDRTCLRGRRTLAWAQESEAAFLLRGPSGESGPRYHARTLRGPVSCRRVSTFPPNPGLTALRSARRARAETRVGCGELKEPIK [UQCC3]	3.65
SPQGRAATRRDMPGRGQDKMQTFFFF [APOL1]	1.16
RWTSLFPGPRTLQEMETVQRAVWSHNLNRFSGAPSLLPSLQ [RPRD1A]	6.53
CTKAWA [IFNGR2]	0.778
ERSPNLQVQGRYIHI [MARK1]	1.47
LAHPKYACHLRPQAGHTGQPACRQDLPASSSQYSLQRLKCEAPAPPSALQPTGPGRTCPLSVSPSRVPRWRPLSTG [PAK6]	3.88
YTTMYFNKDHQC [LRP2BP]	1.43 and 3.14
GRTRRFNRASVVSPVGLQKSGAFAICLK	10.9
STSHAYQVAELGPLGQGAQATSSFVVTKQGSPFPFLLPYFVQRTRVIYIYICICLYPSPHLSDSALGTQLWAARGAVPCGSSC [SCAMP5]	5.87
CERGLSSSLPAPSSPRPSSLCAW [HOXC10]	2.77
QHYS [C4BPB]	0.456
QEMWSLRCLKSTTMPGIEEDYYLKQWALVFGASDMPSILPSWN [G6PC]	10.6
QLGPAWKASAPCTHTDRNFRDCGVETGAQALQRVALKL [RAB36]	7.77
QWPHPHWAQARRGPAHAHTTGQGCGAGAIPAPFPGPRGLGSLPSHPGLVPPGAPTVEIRRGWNGGRGGAGGPHPSAALGLGPH [GNB2]	7.88
CVAGVEVLIEYDRRMTITLSAQCG [OR10H2]	6.41
LYRSRWFFTALDIIPFYHPFITPKVCLIASEVYKVV [PLPPR5]	7.74

Substance	median enrichment
LLEWIYDVPLRRSISATILI [HMGCLL1]	20.6
LKEIWEIL [ZNF418]	16.1
GSGLCLVLSLPGRCSTPYRGGQLRAWAASSWTQLSRSSCSAQGGHMSEPRSWTSTQEDASEGKEIFYGLRPECQY [KLRG2]	7.23
QPTGDPDLILNRRRLRDSRRHRSCPQWTPMNPSQPGPLTKTTRTSWELWDSLDSAVKDD [LILRB5]	1.48
EEEEEEEEEE [Glu10]	0.42
YTPNNLLPPLAPVAYISS [TMEM169]	11.3
LAEDPADPYLEEEEKQERESHSQPAIGSNWTTCGMDLETSTSPNTSPLPRAGPVHALP [CYFIP2]	1.33
KKKKKKK [Lys07]	0.751
YEAPS [OR1L8]	1.07
SRRRLGLCSQGLWLMMIDAPFSHALSSHLASAGQNPSPDVCNLCLEYLGVVEEQIIPSKHQALGFLEQAESQ [USP39]	3.94
RRKEFCKETIRFVKDILHNI [PPP1CB]	7.66
RASPAHCQGRRGPDQGPRGLRAPPLSPPQCLRGPEPPPVPAAPLPQGPAMPHPGLKFCKVLRGPEHVSATRGSGQHCVLRLVS [SLC29A4]	8.55
SRNMSSQGIETALNSLTSRL [PCLO]	3.6
WVLSRAVEVPVIPAGAAATQSGRQGGEHLSATETNHSLFAQHASSSVLHSSPGSLSGSSTESFCSLKCWDA [CGNL1]	8.11
YAAIDSRSLYTVTSEDYT [SLC46A3]	6.41
RAPTLQPQTLCTPRCDAGRGPPPGRTDCRSWEPRHAQASAEGAAGGSARLDPWHLIKKFSLMSMVVGQPSSLSQQAHAASVTS [ZFPM1]	2.21
WQPPASHTVLQLTAHVHAVRADSSSTQQTRTYGLWMDADDGTVQ [CALN1]	8.36
WMSMSEGKENFGHQNPAPSELKELIYFMKLILLCVCSWC [GALNT15]	26.8
KGPPRAQGPGAPRGWGQTKTRQRGERRERAGAGPLGAELGASGGRRLMFYKL [IER5L]	40.8
LNQS [CFH]	0.385
WWLWLQRT [FAAH]	11.2
